Source: publication PMC5014551

B1: Bol3-Strep [S. cerevisiae] / Grx5 [S. cerevisiae (endogenous in yeast mitochondria)] (parent)
chain 1: MKLPQTMLRSISVKHVRWPRILTGSKLWYSTQMAMTPEEKMITDKLQQELEPEVCKVQDVSGGCGSMFAINITSKKFNGLSLIKQHQLVNRILRDDISRWHGLQLTTKKSTGKGPASS
chain 2: LSTEIRKAIEDAIESAPVVLFMKGTPEFPKCGFSRATIGLLGNQGVDPAKFAAYNVLEDPELREGIKEFSEWPTIPQLYVNKEFIGGCDVITSMARSGELADLLEEAQALVPEEEEETKDR
B2: Bol3-Strep [S. cerevisiae] / Sdh2 [S. cerevisiae (endogenous in yeast mitochondria)] (parent)
chain 1: B1 chain 1
chain 2: TATTAAATHTPRLKTFKVYRWNPDEPSAKPHLQSYQVDLNDCGPMVLDALLKIKDEQDSTLTFRRSCREGICGSCAMNIGGRNTLACICKIDQNESKQLKIYPLPHMFIVKDLVPDLTNFYQQYKSIQPYLQRSSFPKDGTEVLQSIEDRKKLDGLYECILCACCSTSCPSYWWNQEQYLGPAVLMQAYRWLIDSRDQATKTRKAMLNNSMSLYRCHTIMNCTRTCPKGLNPGLAIAEIKKSLAFA
B3: Bol3-Strep [S. cerevisiae] / Lip5 [S. cerevisiae (endogenous in yeast mitochondria)] (parent)
chain 1: B1 chain 1
chain 2: SSTIRCGTSATRPIRSNALNTDSDNASVRVPVGNSTEVENATSQLTGTSGKRRKGNRKRITEFKDALNLGPSFADFVSGKASKMILDPLEKARQNTEEAKKLPRWLKVPIPKGTNYHKLKGDVKELGLSTVCEEARCPNIGECWGGKDKSKATATIMLLGDTCTRGCRFCSVKTNRTPSKPDPMEPENTAEAIKRWGLGYVVLTTVDRDDLVDGGANHLAETVRKIKQKAPNTLVETLSGDFRGDLKMVDIMAQCGLDVYAHNLETVESLTPHVRDRRATYRQSLSVLERAKATVPSLITKTSIMLGLGETDEQITQTLKDLRNIQCDVVTFGQYMRPTKRHMKVVEYVKPEKFDYWKERALEMGFLYCASGPLVRSSYKAGEAFIENVLKKRNMK
B4: Bol3-Strep [S. cerevisiae] / Aco2 [S. cerevisiae (endogenous in yeast mitochondria)] (parent)
chain 1: B1 chain 1
chain 2: ATHANMFPSVSKNFQTKVPPYAKLLTNLDKIKQITNNAPLTLAEKILYSHLCDPEESITSSDLSTIRGNKYLKLNPDRVAMQDASAQMALLQFMTTGLNQTSVPASIHCDHLIVGKDGETKDLPSSIATNQEVFDFLESCAKRYGIQFWGPGSGIIHQIVLENFSAPGLMMLGTDSHTPNAGGLGAIAIGVGGADAVDALTGTPWELKAPKILGVKLTGKLNGWSTPKDVITKLAGLLTVRGGTGYIVEYFGEGVSTLSCTGMATICNMGAEIGATTSTFPYQEAHKRYLQATNRAEVAEAADVALNKFNFLRADKDAQYDKVIEIDLSAIEPHVNGPFTPDLSTPISQYAEKSLKENWPQKVSAGLIGSCTNSSYQDMSRVVDLVKQASKAGLKPRIPFFVTPGSEQIRATLERDGIIDIFQENGAKVLANACGPCIGQWNREDVSKTSKETNTIFTSFNRNFRARNDGNRNTMNFLTSPEIVTAMSYSGDAQFNPLTDSIKLPNGKDFKFQPPKGDELPKRGFEHGRDKFYPEMDPKPDSNVEIKVDPNSDRLQLLEPFKPWNGKELKTNVLLKVEGKCTTDHISAAGVWLKYKGHLENISYNTLIGAQNKETGEVNKAYDLDGTEYDIPGLMMKWKSDGRPWTVIAEHNYGEGSAREHAALSPRFLGGEILLVKSFARIHETNLKKQGVLPLTFANESDYDKISSGDVLETLNLVDMIAKDGNNGGEIDVKITKPNGESFTIKAKHTMSKDQIDFFKAGSAINYIGNIRRNE
B5: Bol3-Strep [S. cerevisiae] / Bio2 [S. cerevisiae (endogenous in yeast mitochondria)] (parent)
chain 1: B1 chain 1
chain 2: TKYATNAAVKSTTASSEASTLGALQYALSLDEPSHSWTKSQLKEIYHTPLLELTHAAQLQHRKWHDPTKVQLCTLMNIKSGGCSEDCKYCAQSSRNDTGLKAEKMVKVDEVIKEAEEAKRNGSTRFCLGAAWRDMKGRKSAMKRIQEMVTKVNDMGLETCVTLGMVDQDQAKQLKDAGLTAYNHNIDTSREHYSKVITTRTYDDRLQTIKNVQESGIKACTGGILGLGESEDDHIGFIYTLSNMSPHPESLPINRLVAIKGTPMAEELADPKSKKLQFDEILRTIATARIVMPKAIIRLAAGRYTMKETEQFVCFMAGCNSIFTGKKMLTTMCNGWDEDKAMLAKWGLQPMEAFKYDRS
B6: Bol1-Strep [S. cerevisiae] / Grx5 [S. cerevisiae (endogenous in yeast mitochondria)] (parent)
chain 1: MFKRAMSTDGPVARTILKRLECGFPDYKNFAFGLYNDSHKHKGHAGVQGNVSAETHFRIEMVSKKFEGLKLPQRHRMVYSLLQDEMAQANGIHALQLSLKTPQEYESKAK
chain 2: B1 chain 2
B7: Bol3-Strep [S. cerevisiae] / Aco1 [S. cerevisiae (endogenous in yeast mitochondria)] (parent)
chain 1: B1 chain 1
chain 2: ATVSNLTRDSKVNQNLLEDHSFINYKQNVETLDIVRKRLNRPFTYAEKILYGHLDDPHGQDIQRGVSYLKLRPDRVACQDATAQMAILQFMSAGLPQVAKPVTVHCDHLIQAQVGGEKDLKRAIDLNKEVYDFLASATAKYNMGFWKPGSGIIHQIVLENYAFPGALIIGTDSHTPNAGGLGQLAIGVGGADAVDVMAGRPWELKAPKILGVKLTGKMNGWTSPKDIILKLAGITTVKGGTGKIVEYFGDGVDTFSATGMGTICNMGAEIGATTSVFPFNKSMIEYLEATGRGKIADFAKLYHKDLLSADKDAEYDEVVEIDLNTLEPYINGPFTPDLATPVSKMKEVAVANNWPLDVRVGLIGSCTNSSYEDMSRSASIVKDAAAHGLKSKTIFTVTPGSEQIRATIERDGQLETFKEFGGIVLANACGPCIGQWDRRDIKKGDKNTIVSSYNRNFTSRNDGNPQTHAFVASPELVTAFAIAGDLRFNPLTDKLKDKDGNEFMLKPPHGDGLPQRGYDAGENTYQAPPADRSTVEVKVSPTSDRLQLLKPFKPWDGKDAKDMPILIKAVGKTTTDHISMAGPWLKYRGHLENISNNYMIGAINAENKKANCVKNVYTGEYKGVPDTARDYRDQGIKWVVIGDENFGEGSSREHAALEPRFLGGFAIITKSFARIHETNLKKQGLLPLNFKNPADYDKINPDDRIDILGLAELAPGKPVTMRVHPKNGKPWDAVLTHTFNDEQIEWFKYGSALNKIKADEKK
B8: Bol3-Strep [S. cerevisiae] / Lys4 [S. cerevisiae (endogenous in yeast mitochondria)] (parent)
chain 1: B1 chain 1
chain 2: LKGQNLTEKIVQSYAVNLPEGKVVHSGDYVSIKPAHCMSHDNSWPVALKFMGLGATKIKNPSQIVTTLDHDIQNKSEKNLTKYKNIENFAKKHHIDHYPAGRGIGHQIMIEEGYAFPLNMTVASDSHSNTYGGLGSLGTPIVRTDAAAIWATGQTWWQIPPVAQVELKGQLPQGVSGKDIIVALCGLFNNDQVLNHAIEFTGDSLNALPIDHRLTIANMTTEWGALSGLFPVDKTLIDWYKNRLQKLGTNNHPRINPKTIRALEEKAKIPKADKDAHYAKKLIIDLATLTHYVSGPNSVKVSNTVQDLSQQDIKINKAYLVSCTNSRLSDLQSAADVVCPTGDLNKVNKVAPGVEFYVAAASSEIEADARKSGAWEKLLKAGCIPLPSGCGPCIGLGAGLLEPGEVGISATNRNFKGRMGSKDALAYLASPAVVAASAVLGKISSPAEVLSTSEIPFSGVKTEIIENPVVEEEVNAQTEAPKQSVEILEGFPREFSGELVLCDADNINTDGIYPGKYTYQDDVPKEKMAQVCMENYDAEFRTKVHPGDIVVSGFNFGTGSSREQAATALLAKGINLVVSGSFGNIFSRNSINNALLTLEIPALIKKLREKYQGAPKELTRRTGWFLKWDVADAKVVVTEGSLDGPVILEQKVGELGKNLQEIIVKGGLEGWVKSQL

Variants of: B1
Assay: Strep-tag affinity purification with MS proteomics (spectral counts)
Conditions: parent: 21, read off a plot

Row | Variant | screen value [%]
1 | chain 1 H101C | 18

Variants of: B2
Assay: as above
Conditions: parent: 32, read off a plot

Row | Variant | screen value [%]
2 | chain 1 H101C | 24

Variants of: B3
Assay: as above
Conditions: parent: 10, read off a plot

Row | Variant | screen value [%]
3 | chain 1 H101C | 10

Variants of: B4
Assay: as above
Conditions: parent: 0, read off a plot

Row | Variant | screen value [%]
4 | chain 1 H101C | 11

Variants of: B5
Assay: as above
Conditions: parent: 8, read off a plot

Row | Variant | screen value [%]
5 | chain 1 H101C | 31

Variants of: B6
Assay: as above
Conditions: parent: 47, read off a plot

Row | Variant | screen value [%]
6 | chain 1 H93C | 5.9

Variants of: B7
Assay: as above
Conditions: parent: 10, read off a plot

Row | Variant | screen value [%]
7 | chain 1 H101C | 22

Variants of: B8
Assay: as above
Conditions: parent: 10, read off a plot

Row | Variant | screen value [%]
8 | chain 1 H101C | 30
